Laboratory results from patent US20240059773A1 (PALLEON PHARMACEUTICALS, published 2024).

Tests used:
[1] = target: T1, recombinant human PD-1 (hPD-1) (human, UniProt Q15116 25-167, limits assumed); test: competition ELISA: antibody titrated 3x and mixed with biotinylated hPD-L1-Fc (1 ug/mL), loaded on hPD-1-coated wells; residual hPD-L1-Fc detected with streptavidin-HRP, A450
Excerpt: The plate was developed with TMB and Stop buffer and the absorbance at 450 nm was read using a SpectraMax plate reader. A450 absorbance curves and IC50S were generated using GraphPad Prism software.

[2] = target: human PD-1 expressed on Jurkat T cells (human, UniProt Q15116 25-288); test: cell-based or functional assay
[3] = target: T1, recombinant human PD-1 (hPD-1); test: BLI (ForteBio Octet); ASC captured on AHC biosensor, hPD-1 titrated from 100 nM in a 2x series; 1:1 fit
Procedure: ASCs were captured on an AHC (Anti-human IgG-Capture) biosensor. hPD-1 analytes were titrated from 100 nM in a 2× series dilution. The signal was subtracted with buffer reference and aligned to baseline. KD, Kon and Koff values were generated using a 1:1 fitting model.

T1 sequence (Q15116 25-167 limits assumed): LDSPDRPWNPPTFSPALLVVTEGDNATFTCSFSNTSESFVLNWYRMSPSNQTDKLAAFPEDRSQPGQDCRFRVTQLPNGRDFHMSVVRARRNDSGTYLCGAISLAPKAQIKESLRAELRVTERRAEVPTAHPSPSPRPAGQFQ
Chain of human PD-1 expressed on Jurkat T cells (Q15116 25-288): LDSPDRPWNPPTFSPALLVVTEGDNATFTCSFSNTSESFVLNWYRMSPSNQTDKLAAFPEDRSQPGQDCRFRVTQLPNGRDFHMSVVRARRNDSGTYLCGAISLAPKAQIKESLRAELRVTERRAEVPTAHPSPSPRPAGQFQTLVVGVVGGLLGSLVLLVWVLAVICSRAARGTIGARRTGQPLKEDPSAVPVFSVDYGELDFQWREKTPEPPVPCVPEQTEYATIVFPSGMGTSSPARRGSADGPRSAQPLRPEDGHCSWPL

- IC50 (read off the curve) [1]: ~7 nM
- EC50 (nM), fold induction of NFAT-driven luciferase [2]: 7.23 nM
- Kd [3]: 10.3 nM
B1: ASC #3 (Janus anti-PD-1 antibody sialidase conjugate) (antibody, human IgG1, kappa, N297A)
light: EIVLTQSPATLSLSPGERATLSCRASKGVSTSGYSYLHWYQQKPGQAPRLLIYLASYLESGVPARFSGSGSGTDFTLTISSLEPEDFAVYYCQHSRDLPLTFGGGTKVEIKRTVAAPSVFIFPPSDEQLKSGTASVVCLLNNFYPREAKVQWKVDNALQSGNSQESVTEQDSKDSTYSLSSTLTLSKADYEKHKVYACEVTHQGLSSPVTKSFNRGEC
heavy: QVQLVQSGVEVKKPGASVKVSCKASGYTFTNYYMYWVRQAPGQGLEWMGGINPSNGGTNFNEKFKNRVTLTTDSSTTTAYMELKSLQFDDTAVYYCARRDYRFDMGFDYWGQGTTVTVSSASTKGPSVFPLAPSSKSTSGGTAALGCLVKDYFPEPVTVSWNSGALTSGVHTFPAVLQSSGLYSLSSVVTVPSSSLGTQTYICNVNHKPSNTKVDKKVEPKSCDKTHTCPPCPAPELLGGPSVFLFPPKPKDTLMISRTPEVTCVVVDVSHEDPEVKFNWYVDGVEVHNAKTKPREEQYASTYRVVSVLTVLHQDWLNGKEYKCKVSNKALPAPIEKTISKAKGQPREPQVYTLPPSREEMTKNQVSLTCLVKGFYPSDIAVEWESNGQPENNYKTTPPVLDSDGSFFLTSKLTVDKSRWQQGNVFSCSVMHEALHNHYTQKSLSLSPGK
chain: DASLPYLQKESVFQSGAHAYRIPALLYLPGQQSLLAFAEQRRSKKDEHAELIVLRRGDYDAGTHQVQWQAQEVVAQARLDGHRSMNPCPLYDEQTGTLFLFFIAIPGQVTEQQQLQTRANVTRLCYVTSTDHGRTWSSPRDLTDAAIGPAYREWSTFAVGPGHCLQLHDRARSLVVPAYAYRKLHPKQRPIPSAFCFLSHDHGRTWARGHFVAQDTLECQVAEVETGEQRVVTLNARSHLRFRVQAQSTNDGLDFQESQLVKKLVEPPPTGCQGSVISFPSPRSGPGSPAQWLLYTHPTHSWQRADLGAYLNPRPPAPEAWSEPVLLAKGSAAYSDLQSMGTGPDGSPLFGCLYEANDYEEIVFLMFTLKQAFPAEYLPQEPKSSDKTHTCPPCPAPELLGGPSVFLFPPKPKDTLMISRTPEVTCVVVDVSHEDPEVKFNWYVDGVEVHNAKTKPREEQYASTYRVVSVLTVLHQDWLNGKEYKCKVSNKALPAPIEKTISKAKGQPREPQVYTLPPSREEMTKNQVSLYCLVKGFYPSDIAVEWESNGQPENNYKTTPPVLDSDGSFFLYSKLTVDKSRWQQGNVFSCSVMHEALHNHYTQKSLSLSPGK
notes: Janus format: one antibody arm (one heavy and one light chain) and one sialidase-Fc fusion, heterodimerised by knob (T366Y) and hole (Y407T) mutations; also called ASC #3-1; ASC #3-2
